The numbers were not newly measured in publication PMC3012698, “Characterization of a Novel Interaction between Bcl-2 Members Diva and Harakiri” (PLoS ONE, 2010), which cites them from elsewhere.

One data set concerns Diva. The following applies: ref [21]. The source says:
Harakiri localizes in membranes and exerts proapoptotic activity by interacting with survival Bcl-XL and Bcl-2 [18]. Harakiri has not been characterized at the structural level except for its C-terminal sequence (∼30 amino acids), which is known from low-resolution techniques to adopt α-helical conformation in model membranes. Diva has also been found predominantly in membranes [20]–[21]. However, little functional data on Diva is available. Specifically, previous independent reports indicate that Diva can have both pro- or antiapoptotic function [20]–[21]. Diva has also been ...

The conditions of data set [1]: ref [10]. How it is done: Circular dichroism (CD) experiments were performed on Harakiri's cytosolic domain to obtain information on its conformational behavior. […] Thus, the cytosolic domain of Harakiri is largely unstructured. Consequently, the NMR spectra of Hrk_ΔTM show small amide ^1H chemical shift dispersion (from ∼7.9 to 8.7 ppm) and severe signal overlap ( Fig. 6 ). These spectral features together with the absen ...

B1: Bak: proapoptotic Bcl-2 member Bak (protein, UniProt Q16611 2-211, looked up)
Bcl-2 homologous …: ASGQGPGPPRQECGEPALPSASEEQVAQDTEEVFRSYVFYRHQQEQEAEGVAAPADPEMVTLPLQPSSTMGQVGRQLAIIGDDINRRYDSEFQTMLQHLQPTAENAYEYFTKIATSLFESGINWGRVVALLGFGYRLALHVYQHGLTGFLGQVTRFVVDFMLHHCIARWIAQRGGWVAALNLGNGPILNVLVVLGVVLLGQFVVRRFFKS
On to B1, for which, in the data set on Diva, the “binding to Diva (co-immunoprecipitation)” value was “bind”.

B2: Bad: BH3-only protein Bad (protein, UniProt Q92934 1-168, looked up)
Bcl2-associated agonist of …: MFQIPEFEPSEQEDSSSAERGLGPSPAGDGPSGSGKHHRQAPGLLWDASHQQEQPTSSSHHGGAGAVEIRSRHSSYPAGTEDDEGMGEEPSPFRGRSRSAPPNLWAAQRYGRELRRMSDEFVDSFKKGLPRPKSAGTATQMRQSSSWTRVFQSWWDRNLGRGSSAPSQ
As to B2, the “structural state of unbound BH3-only protein” value in data set [1] is “unstructured”.

B3: Bik: proapoptotic Bcl-2 member Bik (protein, UniProt Q13323 1-160, looked up)
Bcl-2-interacting killer: MSEVRPLSRDILMETLLYEQLLEPPTMEVLGMTDSEEDLDPMEDFDSLECMEGSDALALRLACIGDEMDVSLRAPRLAQLSEVAMHSLGLAFIYDQTEDIRDVLRSFMDGFTTLKENIMRFWRSPNPGSWVSCEQVLLALLLLLALLLPLLSGGLHLLLK
On to B3, for which, in the data set with Diva, the “binding to Diva (co-immunoprecipitation)” value is recorded as “bind”.
